Experimental data taken from patent US20200140551A1 (GlaxoSmithKline, published 2020).

T1: cynomolgus ICOS (cynomolgus, UniProt A0A2K5TQR6 21-140)
T1 construct: also called cyno ICOS; not shown: Carrier of the soluble construct, if any
T1 sequence: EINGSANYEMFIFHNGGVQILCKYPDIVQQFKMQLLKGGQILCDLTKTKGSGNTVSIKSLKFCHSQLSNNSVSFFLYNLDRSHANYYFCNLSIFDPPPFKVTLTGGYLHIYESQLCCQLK

T2: human ICOS (human, UniProt Q9Y6W8 21-140, limits assumed)
T2 sequence: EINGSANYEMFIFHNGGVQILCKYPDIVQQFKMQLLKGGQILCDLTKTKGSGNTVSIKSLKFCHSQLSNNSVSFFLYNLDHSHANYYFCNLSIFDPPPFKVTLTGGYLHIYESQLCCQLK


Tests used:
[1] = target: T1, cynomolgus ICOS; assay: Biacore (SPR), cyno ICOS; format not described
[2] = target: T2, human ICOS; assay: Biacore (SPR), human ICOS; format not described

Binder | Kd [1] [nM] | Kd [2] [nM]
murine anti-human ICOS mAb clone 422.2 (antibody, V domains shown, also called hybridoma clone 422.2) VH: QVQLQQSGPELVRPGESVKISCMGSGYTFTDYAMHWVKQSHAKSLEWIGLISIYSDHTNYNQKFQGKATMTVDKSSSTAYMELARLTSEDSAIYYCGRNNYGNYGWYFDVWGAGTTVTVSS VL: ENVLTQSPAIMSASPGEKVTMTCSASSSVSYMHWYQQKSITSPKLWIYDTSKLASGVPGRFSGSGSGNSYSLTISSMEAEDVATYYCFQGSGYPYTFGGGTKLEIKR | 4.46 | 5.7
murine anti-human ICOS mAb clone 88.2 (antibody, V domains shown) VH: QVQLQQPGAELVRPGASVKLSCKASGYSFTSYWINWVKQRPGQGLEWIGNIYPSDSYTNYNQMFKDKATLTVDKSSNTAYMQLTSPTSEDSAVYYCTRWNLSYYFDNNYYLDYWGQGTTLTVSS VL: QAVVTQESALTTSPGETVTLTCRSSTGAVTTSNYANWVQEKPDHLFTGLIGGTNNRAPGVPARFSGSLIGDKAALTITGAQTEDEAIYFCALWYNNHLVFGGGTKLTVL | 23 | 31
